Among the data in patent US20030104352 are activity (% TetR colonies), binding signal (mutability value) and activity values, retold here.

The target of the series is T1, LtrA (L1.LtrB group II intron-encoded protein) (Lactococcus lactis) (UniProt P0A3U0).
T1 sequence: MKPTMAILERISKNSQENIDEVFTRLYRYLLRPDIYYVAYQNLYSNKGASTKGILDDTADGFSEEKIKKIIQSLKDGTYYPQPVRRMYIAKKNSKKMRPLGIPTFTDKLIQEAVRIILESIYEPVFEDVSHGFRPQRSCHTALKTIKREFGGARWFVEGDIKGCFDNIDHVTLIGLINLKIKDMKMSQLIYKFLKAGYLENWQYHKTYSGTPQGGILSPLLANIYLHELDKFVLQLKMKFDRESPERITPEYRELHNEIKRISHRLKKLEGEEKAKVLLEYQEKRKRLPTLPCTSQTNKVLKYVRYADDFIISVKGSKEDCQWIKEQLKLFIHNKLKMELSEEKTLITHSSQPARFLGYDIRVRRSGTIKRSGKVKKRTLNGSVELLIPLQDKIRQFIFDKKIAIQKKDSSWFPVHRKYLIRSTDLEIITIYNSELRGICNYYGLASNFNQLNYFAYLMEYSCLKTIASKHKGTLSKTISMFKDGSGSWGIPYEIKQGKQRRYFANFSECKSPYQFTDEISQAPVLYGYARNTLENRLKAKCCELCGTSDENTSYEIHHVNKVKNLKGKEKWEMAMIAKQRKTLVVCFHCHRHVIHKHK
Put plainly: cell_activity. The settings on record: for binding signal (mutability value): doped target pool selection; for activity: after IPTG induction.

Take “L1.LtrB deltaORF intron RNA ; L1.LtrB DNA target -30 to +15”: the activity (% TetR colonies) (100 uM IPTG, ~70% without IPTG) turned out to be 100.
Take “L1.LtrB deltaORF intron RNA ; L1.LtrB target C-7A”: for the setting “[24 (-7 C>A)], preferred over wild type”, the binding signal (mutability value) came to 3.83.
Turning to “L1.LtrB deltaORF intron RNA ; L1.LtrB target G-21A”, the binding signal (mutability value) ([10 (-21 G>A)]) was -0.6.
For the substance “L1.LtrB deltaORF intron RNA ; L1.LtrB target G-21C”, the binding signal (mutability value) ([10 (-21 G>C)]) was -0.9.
As to “L1.LtrB deltaORF intron RNA ; L1.LtrB target G-21T”, the binding signal (mutability value) ([10 (-21 G>T)], absent from active sites) is -1.
As for “retargeted L1.LtrB intron HIV1-4021s ; HIV-1 proviral target 4021s”, the activity is over 60 % mobility.
“retargeted L1.LtrB intron HIV1-4069s ; HIV-1 pol target 4069s”: where the note is “also inserted in human cells (p89)”, the activity was over 60 % mobility.
